Among the data in article PMC10689437 are stoichiometry N values, retold here.

The assay has as its target SARS-CoV-2 non-structural protein 3 (nsp3), released from the expressed HA-nsp3-4-V5 polyprotein (SARS-CoV-2). Nature of the assay: cryo-EM structure.

The term stoichiometry N denotes a count of units in the complex or per binding partner. For the substance “SARS-CoV-2 non-structural protein 3 (nsp3), released from the expressed HA-nsp3-4-V5 polyprotein (natural protein)”, the stoichiometry N stood at 6.
